US20030220250A1

Biological target: Tie-2 tyrosine kinase receptor on HUVECs (human) (UniProt Q02763)
Experiment: cell-based or functional assay

Chain of UniProt Q02763 (Q02763 23-1124): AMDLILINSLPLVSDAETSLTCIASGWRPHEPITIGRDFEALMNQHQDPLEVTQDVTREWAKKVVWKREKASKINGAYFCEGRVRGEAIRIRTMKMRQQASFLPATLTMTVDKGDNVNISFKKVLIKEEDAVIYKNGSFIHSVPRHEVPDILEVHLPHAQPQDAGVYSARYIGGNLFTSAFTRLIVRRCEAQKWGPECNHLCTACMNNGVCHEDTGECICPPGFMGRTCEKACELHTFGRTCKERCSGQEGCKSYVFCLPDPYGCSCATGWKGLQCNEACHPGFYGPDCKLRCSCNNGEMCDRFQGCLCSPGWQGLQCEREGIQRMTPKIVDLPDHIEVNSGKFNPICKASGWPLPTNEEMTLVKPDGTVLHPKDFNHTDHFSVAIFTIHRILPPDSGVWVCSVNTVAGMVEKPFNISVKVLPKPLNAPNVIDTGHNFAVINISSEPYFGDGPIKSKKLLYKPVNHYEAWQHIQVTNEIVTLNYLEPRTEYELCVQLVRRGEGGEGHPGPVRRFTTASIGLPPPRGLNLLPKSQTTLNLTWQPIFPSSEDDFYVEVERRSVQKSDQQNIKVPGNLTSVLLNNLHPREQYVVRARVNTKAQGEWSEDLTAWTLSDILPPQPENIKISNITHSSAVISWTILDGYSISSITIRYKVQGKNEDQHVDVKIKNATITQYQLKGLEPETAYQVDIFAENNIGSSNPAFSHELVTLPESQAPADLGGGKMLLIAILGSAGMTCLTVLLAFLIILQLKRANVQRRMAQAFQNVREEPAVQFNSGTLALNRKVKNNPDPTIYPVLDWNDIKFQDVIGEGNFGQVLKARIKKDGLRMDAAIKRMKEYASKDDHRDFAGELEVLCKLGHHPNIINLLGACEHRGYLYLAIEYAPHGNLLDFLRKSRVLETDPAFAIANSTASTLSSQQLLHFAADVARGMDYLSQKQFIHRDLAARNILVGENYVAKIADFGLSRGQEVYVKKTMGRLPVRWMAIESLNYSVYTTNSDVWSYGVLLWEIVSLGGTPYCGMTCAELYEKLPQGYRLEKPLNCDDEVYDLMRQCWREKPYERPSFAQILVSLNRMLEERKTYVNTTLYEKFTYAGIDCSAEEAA

Substance “Angiopoietin-1 secreted by HT29 human colon cancer cells stably transfected with full-length Ang-1 cDNA in pcDNA3.1 (from UniProt Q15389 16-498) (ligand)” has a Tie-2 phosphorylation in HUVECs after 48 h transwell co-culture (Tie-2 immunoprecipitation, anti-phosphotyrosine Western blot, densitometry), versus co-culture with pcDNA-transfected HT29 cells of 2 fold.
